Key:
[1] = molecular target: the molecule itself; assay: cryo-EM structure; αB-AXA fibrils elongated at room temperature for about four weeks, dialysed (1 MDa m.w.c.o.), 0.5 mg/mL; helical and local refinement with D2 symmetry, 3.4 Å
[2] = molecular target: the molecule itself; assay: SEC + other: negative-stain electron microscopy; Superose-6 24 mL column; peak fractions examined by negative-stain EM with 2D class averaging; 20 mM HEPES pH 7.4, 150 mM NaCl, 1 mM EDTA

Row | Protein | binding result [1] | binding result [2]
1 | human αB-crystallin NT-AXA variant (natural protein, UniProt P02511 1-175, looked up, human αB-crystallin (HSPB5, CRYAB), 20.2 kDa subunit; The cryo-EM model covers residues 75-161; the last 14 residues are not modelled; also called αB-AXA; source: E. coli BL21, purified (Sephacryl 300 SEC, MonoQ ion exchange), no purification tags) MDAAAHHPWIRRPFFPFHSPSRLFDQFFGEHLLESDLFPTSTSLSPFYLRPPSFLRAPSWFDTGLSEMRLEKDRFSVNLDVKHFSPEELKVKVLGDVIEVHGKHEERQDEHGFISREFHRKYRIPADVDPLTITSSLSSDGVLTVNGPRKQVSGPERTIPITREEKPAVTAAPKK | binds | 
2 | human wildtype αB-crystallin (natural protein, UniProt P02511 1-175, looked up, human αB-crystallin (HSPB5, CRYAB), 20.2 kDa subunit; pET plasmid containing the human αB-crystallin gene; Polydisperse cage-like oligomers; also called αB-wt; αB-WT; source: E. coli BL21, purified (Sephacryl 300 SEC, MonoQ ion exchange), no purification tags) MDIAIHHPWIRRPFFPFHSPSRLFDQFFGEHLLESDLFPTSTSLSPFYLRPPSFLRAPSWFDTGLSEMRLEKDRFSVNLDVKHFSPEELKVKVLGDVIEVHGKHEERQDEHGFISREFHRKYRIPADVDPLTITSSLSSDGVLTVNGPRKQVSGPERTIPITREEKPAVTAAPKK |  | binds

From paper doi:10.1101/2024.03.22.586355, “Dynamic fibrillar assembly of αB-crystallin induced by perturbation of the conserved NT-IXI motif resolved by cryo-EM” (bioRxiv, 2024)
